B1: polypeptide possessing protein disulfide isomerase (PDI) activity from Humicola insolens KASI (FERM BP-4239), purified from fungal cells (Example 2) (enzyme)
chain: SDVVQLKKDTFDDFIKTNDLVLAEFFAPWCGHCKALAPEYEEAATTLKEKNIKLAKVDCTEETDLCQQHGVEGYPTLKVFRGLDNVSPYKGQRKAAAITSYMIKQSLPAVSEVTKDNLEEFKKADKAVLVAYVDASDKASSEVFTQVAEKLRDNYPFGSSSDAALAEAEGVKAPAIVLYKDFDEGKAVFSEKFEVEAIEKFAKTGATPLIGEIGPETYSDYMSAGIPLAYIFAETAEERKELSDKLKPIAEAQRGVINFGTIDAKAFGAHAGNLNLKTDKFPAFAIQEVAKNQKFPFDQEKEITFEAIKAFVDDFVAGKIEPSIKSEPIPEKQEGPVTVVVAKNYNEIVLDDTKDVLIEFYAPWCGHCKALAPKYEELGALYAKSEFKDRVVIAKVDATANDVPDEIQGFPTIKLYPAGAKGQPVTYSGSRTVEDLIKFIAENGKYKAAISEDAEETSSATETTTETATKSEEAAKETATEHDEL
B2: recombinant polypeptide possessing PDI activity from E. coli JM105/pTrc99APDI (Example 8) (enzyme)
chain: B1 chain

Tests used:
[1] = target: scrambled ribonuclease A from bovine pancreas (bovine) (UniProt P61823)
UniProt P61823, sequence (P61823 27-150 limits assumed): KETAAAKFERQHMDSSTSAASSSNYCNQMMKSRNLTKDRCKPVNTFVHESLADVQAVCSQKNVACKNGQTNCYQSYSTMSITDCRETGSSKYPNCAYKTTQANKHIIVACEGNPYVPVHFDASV

[2] = target: scrambled egg lysozyme (Gallus gallus (Chicken)) (UniProt P00698)

Binder | Refolding Ratio of Sc-RNase (%) [1] | reactivation of Sc-lysozyme (lysozyme activity on ethylene glycol chitin, absorbance at 420 nm) [2]
B1 | 80% | 12%
B2 | 82% | 

— US5700659
